Tests used:
Cry1Ab protoxin = target: T1, Cry1Ab protoxin (Bacillus thuringiensis, UniProt P0A370 1-1155); experiment: ELISA; plates coated with 0.5 ug protoxin or activated toxin in PBS; PxHsp90 in Hsp90 buffer (1 mM ATP, 1 mM Mg in PBS) added for 1 h at 37 C; detected with anti-polyhistidine-peroxidase antibody; one sample without ATP (binding significantly reduced); conditions: both partners purified
T1 construct: also called 130-kDa protoxin

Cry1Ac protoxin = Cry1Ac protoxin (Bacillus thuringiensis (strain HD73), UniProt P05068 1-1178); experiment: as above; conditions: both partners purified

B1: Plutella xylostella Hsp90 (natural protein)
chain: not shown
notes: Hsp90 of Plutella xylostella, gene Pxhsp90 (GenBank AB214972.1), amplified from genomic DNA with primers from the start codon (NdeI) to the stop codon (BamHI); Cloned NdeI-BamHI into pET28b with its own stop codon, so the His tag is probably N-terminal (surmised); detected in the ELISA with an anti-polyhistidine antibody; also called PxHsp90; source: E. coli BL21 (pET28b), purified (Ni-NTA from …)
B1: binds (Cry1Ab protoxin); binds (Cry1Ac protoxin).

Reference: paper PMC6879724, “Insect Hsp90 Chaperone Assists Bacillus thuringiensis Cry Toxicity by Enhancing Protoxin Binding to the Receptor and by Protecting Protoxin from Gut Protease Degradation” (mBio, 2019)
